Measurements from patent publication US4546077A, “Leucine dehydrogenase and a process for production thereof” (Unitika Ltd., priority 1982, dated 1985).

How the values were obtained:
[1] = substrate: CC(C)C[C@H](N)C(=O)O; assay: Michaelis constants of leucine dehydrogenase; type: biochemical; conditions: other: purified leucine dehydrogenase from Bacillus stearothermophilus; pH 11.0; 55.0 °C
Method: (§1) Next, physico-chemical properties of the thus obtained leucine dehydrogenase of the present invention are shown below, wherein the leucine dehydrogenase was obtained from Bacillus stearothermophilus.
(§2) A solution mixture containing 1.25 mM NAD and 10 mM L-leucine in a […] glycine-KCl-KOH buffer solution having pH 11 was prepared. A suitable amount of a leucine dehydrogenase was added to the solution mixture and the increment of a reduced type NAD per unit time at 55° C. was measured as an increment of the absorbancy at 340 nm. The amount of the enzyme which made it possible to increase the absorbancy of 1μ mole of NADH at 340 nm per minute was set at 1 unit.

[2] = substrate: NC(=O)c1ccc[n+]([C@@H]2O[C@H](COP(=O)([O-])OP(=O)(O)OC[C@H]3O[C@@H](n4cnc5c(N)ncnc54)[C@H](O)[C@@H]3O)[C@@H](O)[C@H]2O)c1; assay: Michaelis constants of leucine dehydrogenase; type: biochemical; conditions: other: purified leucine dehydrogenase from Bacillus stearothermophilus; pH 11.0; 55.0 °C
Method: as §1, §2

B1: leucine dehydrogenase obtained from Bacillus stearothermophilus (Geobacillus stearothermophilus) (protein)
chain: MELFKYMETYDYEQVLFCQDKESGLKAIIAIHDTTLGPALGGTRMWMYNSEEEALEDALRLARGMTYKNAAAGLNLGGGKTVIIGDPRKDKNEAMFRAFGRFIQGLNGRYITAEDVGTTVADMDIIYQETDYVTGISPEFGSSGNPSPATAYGVYRGMKAAAKEAFGSDSLEGKVVAVQGVGNVAYHLCRHLHEEGAKLIVTDINKEVVARAVEEFGAKAVDPNDIYGVECDIFAPCALGGIINDQTIPQLKAKVIAGSADNQLKEPRHGDIIHEMGIVYAPDYVINAGGVINVADELYGYNRERAMKKIEQIYDNIEKVFAIAKRDNIPTYVAADRMAEERIETMRKARSPFLQNGHHILSRRRAR
notes: the leucine dehydrogenase was obtained from Bacillus stearothermophilus; endogenous in cells; host or cells: Bacillus stearothermophilus (enzyme isolated and purified from the cultured bacteria)
- Km [1]: 1500 µM
- Km [2]: 400 µM
